Assay results published in publication PMC4039369, “Nucleotide degradation and ribose salvage in yeast” (Molecular Systems Biology, 2013).

Assays:
[1] = substrate: Nc1ccn([C@@H]2O[C@H](COP(=O)(O)O)[C@@H](O)[C@H]2O)c(=O)n1; assay: phosphate release (phosphatase) assay, Michaelis-Menten fit; format: biochemical, Saccharomyces cerevisiae; conditions: 5 mM MgCl2; substrate range 0.001-9.5 mM
Source text: phosphate release (phosphatase) assay, Michaelis-Menten fit on Phm8 | Kinetic characterization of Phm8 and Sdt1 toward their most preferred substrate CMP

[2] = substrate: Nc1ccn([C@@H]2O[C@H](COP(=O)(O)O)[C@@H](O)[C@H]2O)c(=O)n1; assay: as above; format: biochemical, Saccharomyces cerevisiae; conditions: 5 mM MgCl2; substrate range 0.001-9.5 mM; remark: listed apart in the source
Source text: phosphate release (phosphatase) assay, Michaelis-Menten fit on Sdt1 | Kinetic characterization of Phm8 and Sdt1 toward their most preferred substrate CMP

Protein | Km [1] | kcat [1] | Km [2] | kcat [2]
Phm8 (Saccharomyces cerevisiae S288C) (protein) MTIAKDYRTIYRNQIKKQIRLNQEHLQSLTHLGSQINFEVDPPKLPDPDPARKVFFFDIDNTLYRKSTKVQLLMQQSLSNFFKYELGFDDDEAERLIESYYQEYGLSVKGLIKNKQIDDVLQYNTFIDDSLPLQDYLKPDWKLRELLINLKKKKLGKFDKLWLFTNSYKNHAIRCVKILGIADLFDGITYCHYDRPIEEEFICKPDPKFFETAKLQSGLSSFANAWFIDDNESNVRSALSMGMGHVIHLIEDYQYESENIVTKDHKNKQQFSILKDILEIPLIMDVEVYRPSSIAIKEMEELEEEGEAVNWSNQQINVQSS | 63 ± 2 µM | 19.8 ± 0.1 s⁻¹ | – | –
Sdt1 (Saccharomyces cerevisiae S288C) (protein) MTVEYTASDLATYQNEVNEQIAKNKAHLESLTHPGSKVTFPIDQDISATPQNPNLKVFFFDIDNCLYKSSTRIHDLMQQSILRFFQTHLKLSPEDAHVLNNSYYKEYGLAIRGLVMFHKVNALEYNRLVDDSLPLQDILKPDIPLRNMLLRLRQSGKIDKLWLFTNAYKNHAIRCLRLLGIADLFDGLTYCDYSRTDTLVCKPHVKAFEKAMKESGLARYENAYFIDDSGKNIETGIKLGMKTCIHLVENEVNEILGQTPEGAIVISDILELPHVVSDLF | – | – | 1700 ± 200 µM | 0.54 ± 0.02 s⁻¹
